According to patent US20040101829A1, “Protein that interacts with lipids and methods for treating hyperlipidemia” (The University of Iowa Research Foundation, priority 2002, published 2004):

Experiments:
[1] = tested on: human LDL; assay: ELISA for E2-LDL interaction (anti-LDL McAb capture, anti-E2 McAb detection); type: binding
Method: FIG. 2: Interaction of E2 with LDL. Increasing amounts of LDL were incubated with purified E2 protein at 4° C. and allowed to bind to mouse monoclonal anti-apolipoprotein B antibody coated in ELISA plates. LDL bound E2 protein was detected with a monoclonal anti-E2 antibody, followed by an alkaline-phosphatase labeled secondary antibody and PNPP substrate. The subtracted blank consisted of E2 protein in the absence of LDL.
Microtiter plates were prepared by coating wells with 100 μl anti-LDL McAb (4 μg/ml in 100 mM bicarbonate buffer, pH 9.6) overnight (ON) at RT (Wuenschmann et al., 2000). […] Plates were washed twice with TBS followed by the addition of 100 μl of E2 protein or E2 protein with LDL in PBS. After ON incubation of samples at RT, plates were washed three times with TBS followed by the addition of anti HCV E2 McAb 108 (7.5 μg/ml). Plates were incubated for 1.5 h and washed three times with TBS; then 100 μl of anti-human IgG-alkaline phosphatase conjugate (Promega, Madison, Wis.) diluted 1/5,000 in BLOTTO was added for 1 h at RT washed four times with TBS, and incubated for 30 min with a 1-mg/ml solution of p-nitrophenyl phosphate (PNPP). Absorbance was measured at 405 nm with a multiwell plate reader. […]

[2] = tested on: MOLT-4 cells; assay: Cell binding assay by flow cytometry, MOLT-4 cells; type: cell-based, human
Method: (§1) MOLT-4 cells, a CD4^+ T lymphoblastoid cell line, and Huh7 cells of hepatocyte origin were obtained from ATCC (Manassas, Va.). Human foreskin fibroblasts (FSF) and LDLr-deficient foreskin fibroblasts (Null) from a patient with familial hypercholesterolemia (Hobbs et al., 1987) were kindly provided by Dr. Jheem Medh.
(§2) Recombinant HCV E2 protein or HIV-gp120-FITC, human, rabbit or bovine lipoproteins, HCV or mock virus preparations were added to cells for 60 min at 4° C. Cells were washed and incubated with ligand-specific antibody for 60 min at 4° C. Antibody binding was detected using goat anti-human IgG-Oregon green (10 μg/ml) for 45 min at 4° C. Cells were washed two times, fixed in PBS containing 4% paraformaldehyde, and analyzed by flow cytometry (FACScan, Becton Dickinson).
HCV-E2 was incubated with increasing concentrations of human LDL for one hour at 4° C. prior to the addition of proteins to MOLT-4 cells. Following one hour at 4° C., cells were washed and HCV E2 binding was detected by flow cytometry. […] The increase in E2 binding in the presence of LDL was seen when either the anti-HCV McAb or anti-HCV polyclonal anti-HCV were used for E2 detection (FIG. 3B). […] To determine if HCV E2 influenced binding of human LDL to MOLT-4 cells, HCV-E2 and fluorescently labeled LDL were incubated for one hour at 4° C. and added to MOLT-4 cells for an additional hour. Cells were washed and analyzed for labeled-LDL binding (FIG. 3E and FIG. 3F).

[3] = tested on: Huh-7 cells; assay: Cell binding assay by flow cytometry, Huh-7 cells; type: cell-based, human; settings: 4° C.
Method: FIG. 3A; FIG. 3B; and FIG. 3C: Incubation of LDL enhanced binding of HCV E2. […] Cell-bound E2 was detected using a monoclonal antiE2 antibody (FIG. 3A and FIG. 3C) or a polyclonal anti-E2 serum (FIG. 3B).
as §1, §2

[4] = tested on: 3T3 cells expressing human CD81; assay: Cell binding assay by flow cytometry, mouse 3T3 cells with or without human CD81; type: cell-based
Method: FIG. 4B: Binding of recombinant HCV E2 to mouse 3T3 cells. Cells were detached non-enzymatically and incubated with recombinant E2 protein. Cell-bound E2 was detected with monoclonal anti-E2 antibody 108, followed by incubation with a secondary fluorescent labeled anti-human IgG. Cells were analyzed by flow cytometry.
FIG. 4C: Binding of HCV E2 and HCV-E2/LDL to mouse 3T3-human CD81 cells. Cells were detached non-enzymatically and incubated with E2 alone or E2/LDL. Cell-bound E2 was detected with monoclonal anti-E2 antibody 108, followed by incubation with a secondary fluorescent labeled anti-human IgG. Cells were analyzed by flow cytometry.
as §2
The increased level of binding of both proteins to MOLT-4 cells may be due to an association between LDL and HCV E2 that enables the resulting complex to bind to either the LDLr or to CD81. […]

[5] = tested on: normal human foreskin fibroblasts (FSF); assay: Cell binding assay by flow cytometry, human foreskin fibroblasts (FSF); type: cell-based
Method: (§3) FIG. 4D: Binding of recombinant HCV E2 and E2-LDL to human fibroblasts (FSF) and human fibroblasts negative for the human LDLr (Null). Cells were detached non-enzymatically and incubated with E2 or E2/LDL proteins. Cell-bound E2 was detected with monoclonal anti-E2 antibody 108, followed by incubation with a secondary fluorescent labeled anti-human IgG. Cells were analyzed by flow cytometry.
as §2
(§4) The increased level of binding of both proteins to MOLT-4 cells may be due to an association between LDL and HCV E2 that enables the resulting complex to bind to either the LDLr or to CD81. To evaluate this interaction further, mouse 3T3 cells expressing only murine CD81 or cells expressing both murine and human CD81 were studied. […] Therefore, the enhanced E2 binding following incubation with LDL appears to require human LDLr expression on the cell surface. […]

[6] = tested on: human fibroblasts that do not express the human LDLr (Null); assay: Cell binding assay by flow cytometry, LDLr-deficient fibroblasts (Null); type: cell-based
Method: as §3, §2, §4

B1: HCV E2: Purified recombinant HCV envelope glycoprotein E2 (Ala 384-Lys 715) expressed in CHO cells, obtained from Austral Biologicals (protein)
chain: ETHVTGGSAGHTVSGFVSLLAPGAKQNVQLINTNGSWHLNSTALNCNDSLNTGWLAGLFYHHKFNSSGCPERLASCRPLTDFDQGWGPISYANGSGPDQRPYCWHYPPKPCGIVPAKSVCGPVYCFTPSPVVVGTTDRSGAPTYSWGENDTDVFVLNNTRPPLGNWFGCTWMNSTGFTKVCGAPPCVIGGAGNNTLHCPTDCFRKHPDATYSRCGSGPWITPRCLVDYPYRLWHYPCTINYTIFKIRMYVGGVEHRLEAACNWTRGERCDLEDRDRSELSPLLLTTTQWQVLPCSFTTLPALSTGLIHLHQNIVDVQYLYGVGSSIASWAIK
- HCV E2 detected in ELISA with murine McAb against human LDL as capture antibody ([1]; E2 alone vs E2 with LDL): only detected when complexed with LDL
- Extent of E2 captured in relation to LDL concentration ([1]; increasing amounts of LDL): directly correlated to the LDL concentration used
- E2 binding to MOLT-4 cells ([2]; E2 alone, 4° C.): bound to MOLT-4 cells
- Amount of labeled LDL bound to MOLT-4 cells after preincubation of LDL with HCV-E2 ([2]; LDL up to concentrations of 2.5 μg/ml, 4° C.): the amount of LDL bound increased
- LDL concentration at which the increase in E2 binding was saturable ([2]; MOLT-4 cells, 4° C.): > 2.5 µg/mL
- HCV E2 binding to MOLT-4 cells stripped of lipoproteins by dextran sulfate ([2]; cell bound bovine lipoproteins removed with dextran sulfate): decreased
- Amount of E2 bound to MOLT-4 cells after incubation with lipoproteins ([2]; human VLDL, LDL and HDL, bovine lipoproteins): increased
- Amount of cell-bound E2 on MOLT-4 cells after preincubation with apoprotein B ([2]; preincubation with apoprotein B (apoB100)): did not increase the amount of cell-bound E2
- Amount of E2 protein bound to MOLT-4 cells after addition of LDL ([2]; preincubation with human LDL one hour at 4° C.): increased the amount of E2 protein bound
- Binding of E2 protein to Huh-7 cells after preincubation with human LDL [3]: increased binding of E2 protein
- E2 binding to 3T3 cells ([4]; 3T3 cells expressing human CD81 vs control 3T3 cells): bound only to 3T3 cells expressing human CD81
- Amount of cell bound HCV E2 on 3T3-human CD81 cells after preincubation with LDL ([4]; preincubation with LDL): did not increase the amount of cell bound HCV E2
- E2 binding to FSF fibroblasts ([5]; E2 alone): bound
- E2 binding to LDLr-expressing fibroblasts when preincubated with LDL ([5]; preincubation with LDL): increased binding
- E2 binding to Null fibroblasts ([6]; E2 alone): bound
- Binding of E2-LDL complexes to Null cells compared with E2 alone ([6]; preincubation with LDL): equally to E2 alone
